Source: publication PMC10724205

Legend:
[1] = biological target: MED6 (UniProt O75586); experiment: BioID (proximity biotinylation, streptavidin isolation, mass spectrometry); conditions: HEK293T cells, transient transfection, biotin, 24 h; n = 3; read off a plot
[2] = biological target: YY1; experiment: as above; conditions: HEK293T cells, transient transfection, biotin, 24 h; n = 3; read off a plot
[3] = biological target: CLP1; experiment: as above; conditions: HEK293T cells, transient transfection, biotin, 24 h; n = 3; read off a plot
[4] = biological target: TCF4; experiment: as above; conditions: HEK293T cells, transient transfection, biotin, 24 h; n = 3; read off a plot
[5] = biological target: p300 (UniProt Q09472); experiment: as above; conditions: HEK293T cells, transient transfection, biotin, 24 h; n = 3; read off a plot
UniProt Q09472, sequence (Q09472 whole entry): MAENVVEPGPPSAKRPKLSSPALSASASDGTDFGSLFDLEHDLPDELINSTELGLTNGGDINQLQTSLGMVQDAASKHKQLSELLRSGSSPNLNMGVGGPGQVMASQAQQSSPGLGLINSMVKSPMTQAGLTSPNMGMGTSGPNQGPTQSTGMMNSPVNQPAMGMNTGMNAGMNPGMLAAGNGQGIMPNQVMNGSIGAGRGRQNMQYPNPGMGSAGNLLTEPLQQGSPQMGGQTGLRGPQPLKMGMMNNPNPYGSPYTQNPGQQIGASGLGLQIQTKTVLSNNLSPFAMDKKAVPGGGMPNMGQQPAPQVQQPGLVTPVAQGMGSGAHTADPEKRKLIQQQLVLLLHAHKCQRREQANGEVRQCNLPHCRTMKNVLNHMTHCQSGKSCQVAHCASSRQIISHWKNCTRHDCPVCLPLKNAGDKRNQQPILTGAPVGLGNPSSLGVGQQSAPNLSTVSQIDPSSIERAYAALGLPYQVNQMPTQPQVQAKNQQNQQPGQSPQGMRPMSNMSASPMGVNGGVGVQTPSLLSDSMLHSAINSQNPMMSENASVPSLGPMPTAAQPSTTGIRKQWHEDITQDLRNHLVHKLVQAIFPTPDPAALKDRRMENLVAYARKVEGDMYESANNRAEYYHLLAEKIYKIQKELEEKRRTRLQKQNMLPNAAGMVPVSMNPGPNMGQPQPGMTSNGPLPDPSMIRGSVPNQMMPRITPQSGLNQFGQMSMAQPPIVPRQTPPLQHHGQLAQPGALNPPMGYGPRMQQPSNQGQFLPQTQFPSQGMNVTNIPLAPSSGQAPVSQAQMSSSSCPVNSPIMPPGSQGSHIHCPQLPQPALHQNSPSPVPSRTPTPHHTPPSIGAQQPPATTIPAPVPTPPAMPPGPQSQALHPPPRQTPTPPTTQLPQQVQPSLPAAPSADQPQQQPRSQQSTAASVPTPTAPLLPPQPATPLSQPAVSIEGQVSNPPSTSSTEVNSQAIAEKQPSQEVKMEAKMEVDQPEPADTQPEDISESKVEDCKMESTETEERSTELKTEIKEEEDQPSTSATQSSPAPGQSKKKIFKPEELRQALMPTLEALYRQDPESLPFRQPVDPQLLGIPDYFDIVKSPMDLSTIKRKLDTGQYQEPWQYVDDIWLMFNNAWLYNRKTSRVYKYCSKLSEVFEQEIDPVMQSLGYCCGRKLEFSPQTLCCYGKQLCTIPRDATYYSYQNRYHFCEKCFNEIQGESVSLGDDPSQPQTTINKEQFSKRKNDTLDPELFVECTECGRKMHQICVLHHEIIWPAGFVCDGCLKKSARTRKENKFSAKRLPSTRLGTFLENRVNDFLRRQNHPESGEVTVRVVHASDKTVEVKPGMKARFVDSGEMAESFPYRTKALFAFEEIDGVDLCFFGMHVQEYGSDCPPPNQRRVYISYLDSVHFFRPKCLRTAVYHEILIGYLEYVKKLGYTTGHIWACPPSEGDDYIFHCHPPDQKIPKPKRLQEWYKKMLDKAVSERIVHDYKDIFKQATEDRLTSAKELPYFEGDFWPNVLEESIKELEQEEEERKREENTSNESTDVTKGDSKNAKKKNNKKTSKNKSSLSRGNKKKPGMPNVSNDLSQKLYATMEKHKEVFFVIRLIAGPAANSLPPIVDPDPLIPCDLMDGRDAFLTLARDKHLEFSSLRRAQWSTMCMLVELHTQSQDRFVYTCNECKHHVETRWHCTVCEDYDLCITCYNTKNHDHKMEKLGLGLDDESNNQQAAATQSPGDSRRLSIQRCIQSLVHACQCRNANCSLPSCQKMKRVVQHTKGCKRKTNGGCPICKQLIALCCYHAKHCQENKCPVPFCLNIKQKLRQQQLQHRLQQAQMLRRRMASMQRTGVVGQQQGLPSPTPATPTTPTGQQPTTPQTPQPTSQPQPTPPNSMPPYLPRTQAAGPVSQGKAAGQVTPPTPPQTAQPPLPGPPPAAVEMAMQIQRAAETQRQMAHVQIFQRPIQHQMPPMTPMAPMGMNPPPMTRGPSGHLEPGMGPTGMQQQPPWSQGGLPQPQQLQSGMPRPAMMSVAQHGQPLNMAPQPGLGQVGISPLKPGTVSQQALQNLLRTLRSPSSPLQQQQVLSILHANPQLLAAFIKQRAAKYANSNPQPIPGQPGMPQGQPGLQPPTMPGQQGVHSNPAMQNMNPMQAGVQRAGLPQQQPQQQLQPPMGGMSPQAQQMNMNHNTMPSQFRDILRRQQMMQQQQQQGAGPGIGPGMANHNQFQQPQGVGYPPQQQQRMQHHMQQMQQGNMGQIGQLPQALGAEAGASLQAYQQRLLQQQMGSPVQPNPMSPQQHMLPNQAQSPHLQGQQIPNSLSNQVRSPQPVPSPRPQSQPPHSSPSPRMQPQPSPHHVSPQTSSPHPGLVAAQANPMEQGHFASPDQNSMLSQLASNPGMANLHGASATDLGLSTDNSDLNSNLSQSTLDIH

[6] = biological target: TAF9 (UniProt Q16594); experiment: as above; conditions: HEK293T cells, transient transfection, biotin, 24 h; n = 3; read off a plot
UniProt Q16594, sequence (Q16594 whole entry): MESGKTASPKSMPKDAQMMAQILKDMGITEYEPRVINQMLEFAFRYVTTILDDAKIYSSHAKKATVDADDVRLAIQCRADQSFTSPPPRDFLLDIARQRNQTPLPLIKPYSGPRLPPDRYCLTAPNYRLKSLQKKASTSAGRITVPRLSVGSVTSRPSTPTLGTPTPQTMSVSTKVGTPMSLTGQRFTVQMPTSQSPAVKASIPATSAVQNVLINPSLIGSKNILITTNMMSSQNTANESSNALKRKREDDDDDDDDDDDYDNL

[7] = biological target: DNTTIP2; experiment: as above; conditions: HEK293T cells, transient transfection, biotin, 24 h; n = 3; read off a plot
[8] = biological target: LacI-CFP-FOXO1 fusion protein with the small C-terminal AD deleted; experiment: LacO array recruitment assay; U2OS cells with 50,000 Lac operon repeats on chromosome 1, transfected with CFP-LacI-FOXO1 fusion baits; endogenous p300 detected at the CFP dot by immunofluorescence after 48 h; dots counted for presence or absence of p300
[9] = biological target: LacI-CFP-FOXO1 fusion protein with the C793S mutant FOXO1 domain; experiment: as above

UniProt O75586, sequence (O75586 whole entry): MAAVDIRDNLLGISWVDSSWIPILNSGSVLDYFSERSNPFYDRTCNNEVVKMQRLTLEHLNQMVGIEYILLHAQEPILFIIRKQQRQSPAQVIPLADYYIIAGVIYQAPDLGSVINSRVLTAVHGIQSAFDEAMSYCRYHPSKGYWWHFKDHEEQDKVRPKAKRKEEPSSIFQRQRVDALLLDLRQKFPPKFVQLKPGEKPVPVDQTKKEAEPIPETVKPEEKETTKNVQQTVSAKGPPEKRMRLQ

other: Log2 (fold change) of total spectral counts [1]	other: Log2 (fold change) of total spectral counts [2]	other: Log2 (fold change) of total spectral counts [3]	other: Log2 (fold change) of total spectral counts [4]	other: Log2 (fold change) of total spectral counts [5]	other: Log2 (fold change) of total spectral counts [6]	other: Log2 (fold change) of total spectral counts [7]	reduction of p300 recruitment against the FOXO1 part of P3F [8] [percent]	loss of p300 recruitment against the wt FOXO1 [9] [percent]	Substance
1.2	2.4	2.2	1.4	0.7	3.8	2.5	–	–	BirA-Flag/PAX3-FOXO1 fusion construct (wildtype P3F) C793S
–	–	–	–	–	–	–	90	30	p300 (endogenous in U2OS cells) (from UniProt Q09472 1-2414) (natural protein)
